Test results: publication PMC11510292, “Heterobivalent Dual-Target Peptide for Integrin-αvβ3 and Neuropeptide Y Receptors on Breast Tumor” (Pharmaceuticals, 2024)

Key:
[1] = Biodistribution in SCID mice bearing MCF-7 xenografts; type: in vivo; conditions: female, mouse, total radioactivity; for tissue uptake at 1 h / tissue uptake per volume at 1 h: SCID, MCF-7 model, 60 min p.i., 0.1 mL/18.5 MBq IV; for tissue uptake per volume at 1 h: whole blood
Description: (§1) To evaluate the uptake of the radiolabeled peptide by breast tumors, additional biodistribution studies were performed in SCID mice bearing MCF-7 and MDA-MB-231 xenografts (Table 2). […] The tumor uptakes of the radiolabeled conjugate were 9.30 ± 3.25% for MCF-7 and 4.93 ± 1.01% for MDA-MB-231 (Figure 5). The tumor-to-muscle ratios were 5.65 ± 0.94 for the MCF-7 model and 7.78 ± 3.20 for the MDA-MB-231 model (Figure 6).
(§2) The animals used in this experiment were provided by the Nuclear and Energy Research Institute (IPEN/CNEN-SP) vivarium. Every effort was made to minimize animal suffering per International Ethical Guidelines. The experimental protocols used in this study were approved by the Scientific Ethics Committee of the IPEN/CNEN-SP. Adult female SCID mice were maintained under controlled environmental conditions (12 h light-dark cycle; constant temperature 21 ± 2 °C), with free access to water and food. Suspensions of cells (5 × 10^6 in 0.1 mL) were subcutaneously injected into the upper back regions of the mice.
(§3) […] Animals were deeply anesthetized and euthanized at the corresponding biodistribution time point. Blood, brain, spleen, heart, stomach, liver, lungs, kidneys, pancreas, muscle, bone, small intestine, and large intestine were collected and weighed. The radioactivity of each organ/tissue was then determined using the above-mentioned automatic gamma counter. The radioactivity was evaluated as the percentage of injected activity per gram of organ/tissue (%IA/g), using the same injected dose activity as a standard. Receptor-blocking studies in tumor models were also carried out by co-administration of 100 μg of cold-conjugated peptide along with radiopeptide.

[2] = Biodistribution in SCID mice bearing MDA-MB-231 xenografts; type: in vivo; conditions: female, mouse, total radioactivity; for tissue uptake at 1 h / tissue uptake per volume at 1 h: SCID, MDA-MB231 model, 60 min p.i., 0.1 mL/18.5 MBq IV; for tissue uptake per volume at 1 h: whole blood
Description: as §1, §2, §3

[3] = brain, Non-Block, n = 5, read-out: Brain uptake
[4] = heart, Block with excess cold peptide, n = 3, read-out: Heart uptake
[5] = heart, Non-Block, n = 5, read-out: Heart uptake
[6] = kidneys, Block with excess cold peptide, n = 3, read-out: Kidneys uptake
[7] = kidneys, Non-Block, n = 5, read-out: Kidneys uptake
[8] = large intestine, Block with excess cold peptide, n = 3, read-out: Large Intestine uptake
[9] = large intestine, Non-Block, n = 5, read-out: Large Intestine uptake
[10] = liver, Block with excess cold peptide, n = 3, read-out: Liver uptake
[11] = liver, Non-Block, n = 5, read-out: Liver uptake
[12] = lungs, Block with excess cold peptide, n = 3, read-out: Lungs uptake
[13] = lungs, Non-Block, n = 5, read-out: Lungs uptake
[14] = muscle, Block with excess cold peptide, n = 3, read-out: Muscle uptake
[15] = muscle, Non-Block, n = 5, read-out: Muscle uptake
[16] = pancreas, Block with excess cold peptide, n = 3, read-out: Pancreas uptake
[17] = pancreas, Non-Block, n = 5, read-out: Pancreas uptake
[18] = small intestine, Block with excess cold peptide, n = 3, read-out: Small Intestine uptake
[19] = small intestine, Non-Block, n = 5, read-out: Small Intestine uptake
[20] = spleen, Block with excess cold peptide, n = 3, read-out: Spleen uptake
[21] = spleen, Non-Block, n = 5, read-out: Spleen uptake
[22] = stomach, Block with excess cold peptide, n = 3, read-out: Stomach uptake
[23] = stomach, Non-Block, n = 5, read-out: Stomach uptake
[24] = tumor, Non-Block, n = 5, read-out: Tumor uptake
[25] = Block with excess cold peptide, n = 3

CCCC[C@H](NC(=O)[C@H](CCCNC(=N)N)NC(=O)[C@H](Cc1c[nH]c2ccccc12)NC(=O)[C@H](CSCC(=O)NCCCC[C@@H]1NC(=O)[C@@H](Cc2ccccc2)NC(=O)[C@H](CC(=O)O)NC(=O)CNC(=O)[C@H](CCCNC(=N)N)NC1=O)NC(=O)[C@@H]1CCCN1C(=O)[C@H](CC(N)=O)NC(=O)[C@@H](NC(=O)COCCOCCNC(=O)c1ccc(NN)nc1)[C@@H](C)CC)C(=O)N[C@@H](CCCNC(=N)N)C(=O)N[C@@H](Cc1ccc(O)cc1)C(N)=O [[^99mTc]HYNIC-cRGDfk-NPY, metal not drawn]
tissue uptake at 1 h [1, 3]: 0.16 ± 0.06 %ID/g
tissue uptake at 1 h [1, 4]: 0.65 ± 0.24 %ID/g
tissue uptake at 1 h [1, 5]: 1.53 ± 0.45 %ID/g
tissue uptake at 1 h [1, 6]: 20.8 ± 7.02 %ID/g
tissue uptake at 1 h [1, 7]: 24.6 ± 8.6 %ID/g
tissue uptake at 1 h [1, 8]: 3.91 ± 2.11 %ID/g
tissue uptake at 1 h [1, 9]: 6.41 ± 1.63 %ID/g
tissue uptake at 1 h [1, 10]: 1.84 ± 0.13 %ID/g
tissue uptake at 1 h [1, 11]: 3.61 ± 0.73 %ID/g
tissue uptake at 1 h [1, 12]: 1.59 ± 0.34 %ID/g
tissue uptake at 1 h [1, 13]: 3.58 ± 1.22 %ID/g
tissue uptake at 1 h [1, 14]: 0.59 ± 0.37 %ID/g
tissue uptake at 1 h [1, 15]: 1.56 ± 1.41 %ID/g
tissue uptake at 1 h [1, 16]: 1.12 ± 0.42 %ID/g
tissue uptake at 1 h [1, 17]: 1.62 ± 0.3 %ID/g
tissue uptake at 1 h [1, 18]: 3.77 ± 0.95 %ID/g
tissue uptake at 1 h [1, 19]: 10.3 ± 2.18 %ID/g
tissue uptake at 1 h [1, 20]: 2.53 ± 0.74 %ID/g
tissue uptake at 1 h [1, 21]: 5.33 ± 1.88 %ID/g
tissue uptake at 1 h [1, 22]: 2.98 ± 0.57 %ID/g
tissue uptake at 1 h [1, 23]: 6.04 ± 1.15 %ID/g
tissue uptake at 1 h ([1]; tumor, Block with excess cold peptide, n = 3, p > 0.05 vs non-block, read-out: Tumor uptake): 4.41 ± 2.13 %ID/g
tissue uptake at 1 h [1, 24]: 9.3 ± 3.25 %ID/g
tissue uptake per volume at 1 h [1, 25]: 0.92 ± 0.07 %ID/mL
tissue uptake per volume at 1 h ([1]; Non-Block, n = 5): 1.66 ± 0.89 %ID/mL
tissue to tissue ratio at 1 h ([1]; tumor and muscle, 37 MBq, MCF-7 tumor-bearing SCID mice, 1 h after IV injection, n = 5): 5.65 ± 0.94
tissue uptake at 1 h ([2]; bone, Block with excess cold peptide, n = 3, read-out: Bone uptake): 0.53 ± 0.16 %ID/g
tissue uptake at 1 h ([2]; bone, Non-Block, n = 5, read-out: Bone uptake): 1.22 ± 0.28 %ID/g
tissue uptake at 1 h ([2]; brain, Block with excess cold peptide, n = 3, read-out: Brain uptake): 0.09 ± 0.01 %ID/g
tissue uptake at 1 h [2, 3]: 0.18 ± 0.04 %ID/g
tissue uptake at 1 h [2, 4]: 0.74 ± 0.2 %ID/g
tissue uptake at 1 h [2, 5]: 1.48 ± 0.29 %ID/g
tissue uptake at 1 h [2, 6]: 13 ± 2.68 %ID/g
tissue uptake at 1 h [2, 7]: 19.3 ± 2.89 %ID/g
tissue uptake at 1 h [2, 8]: 2.22 ± 0.98 %ID/g
tissue uptake at 1 h [2, 9]: 5.18 ± 0.87 %ID/g
tissue uptake at 1 h [2, 10]: 1.41 ± 0.62 %ID/g
tissue uptake at 1 h [2, 11]: 3.75 ± 0.51 %ID/g
tissue uptake at 1 h [2, 12]: 1.95 ± 0.6 %ID/g
tissue uptake at 1 h [2, 13]: 3.27 ± 0.47 %ID/g
tissue uptake at 1 h [2, 14]: 0.33 ± 0.02 %ID/g
tissue uptake at 1 h [2, 15]: 0.88 ± 0.13 %ID/g
tissue uptake at 1 h [2, 16]: 0.7 ± 0.21 %ID/g
tissue uptake at 1 h [2, 17]: 1.35 ± 0.35 %ID/g
tissue uptake at 1 h [2, 18]: 2.16 ± 0.74 %ID/g
tissue uptake at 1 h [2, 19]: 8.3 ± 1.36 %ID/g
tissue uptake at 1 h [2, 20]: 1.51 ± 0.22 %ID/g
tissue uptake at 1 h [2, 21]: 5.02 ± 0.63 %ID/g
tissue uptake at 1 h [2, 22]: 2.05 ± 0.33 %ID/g
tissue uptake at 1 h [2, 23]: 5.63 ± 0.96 %ID/g
tissue uptake at 1 h ([2]; tumor, Block with excess cold peptide, n = 3, p < 0.05 vs non-block, read-out: Tumor uptake): 2.3 ± 0.41 %ID/g
tissue uptake at 1 h [2, 24]: 4.93 ± 1.01 %ID/g
tissue uptake per volume at 1 h [2, 25]: 1.4 ± 0.21 %ID/mL
tissue uptake per volume at 1 h ([2]; Non-Block, n = 5): 1.8 ± 1.03 %ID/mL
tissue to tissue ratio at 1 h ([2]; tumor and muscle, 37 MBq, MDA-MB-231 tumor-bearing SCID mice, 1 h after IV injection, n = 5): 7.78 ± 3.2
